Values of other authors, collected in PMC5419078.
Read-outs that look alike come from different tables or passages of the source.

Assays:
infliximab [1] = biological target: infliximab
[2] = biological target: etanercept ECD (Homo sapiens) (UniProt P20333)
[3] = biological target: etanercept ECD (Homo sapiens) (UniProt P20333); assay: SPR
infliximab [4] = assay: SPR

Chain of TNF (P01375 77-233): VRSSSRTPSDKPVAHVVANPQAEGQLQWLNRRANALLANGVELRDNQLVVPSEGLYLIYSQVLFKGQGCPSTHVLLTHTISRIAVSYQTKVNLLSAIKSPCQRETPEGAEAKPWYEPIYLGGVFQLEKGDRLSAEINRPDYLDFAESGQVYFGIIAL
Chain of infliximab (main, as listed by the source, chain 1 of 2, other chains not shown): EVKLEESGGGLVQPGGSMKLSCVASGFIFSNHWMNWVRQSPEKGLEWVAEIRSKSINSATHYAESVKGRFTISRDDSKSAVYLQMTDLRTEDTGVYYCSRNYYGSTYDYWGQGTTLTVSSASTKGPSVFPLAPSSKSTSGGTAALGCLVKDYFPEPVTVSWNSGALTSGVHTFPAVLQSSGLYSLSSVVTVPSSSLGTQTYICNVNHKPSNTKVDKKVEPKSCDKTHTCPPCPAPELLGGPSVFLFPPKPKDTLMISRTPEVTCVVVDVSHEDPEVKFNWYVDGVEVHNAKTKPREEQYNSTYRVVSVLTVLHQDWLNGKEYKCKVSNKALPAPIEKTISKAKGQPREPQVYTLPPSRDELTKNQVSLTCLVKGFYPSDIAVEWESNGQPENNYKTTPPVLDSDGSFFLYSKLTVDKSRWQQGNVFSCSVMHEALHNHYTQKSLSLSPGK
Chain of etanercept ECD (Homo sapiens) (P20333 23-257): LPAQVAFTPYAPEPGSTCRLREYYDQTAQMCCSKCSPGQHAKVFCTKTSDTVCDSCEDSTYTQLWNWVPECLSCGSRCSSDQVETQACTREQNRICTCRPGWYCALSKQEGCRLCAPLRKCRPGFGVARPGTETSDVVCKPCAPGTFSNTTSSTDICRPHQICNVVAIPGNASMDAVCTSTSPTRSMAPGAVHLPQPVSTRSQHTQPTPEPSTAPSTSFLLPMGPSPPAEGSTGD

## TNF (from UniProt P01375)
Infliximab [1]
  Kd: 0.0886 nM
[2]
  Kd: 0.00566 nM
[3]
  Kd: 0.0118 nM
Infliximab [4]
  Kd: 0.0273 nM
